B1: High osmolarity signaling protein SHO1 (Saccharomyces cerevisiae), P40073 (parent)
chain: MSISSKIRPTPRKPSRMATDHSFKMKKFYADPFAISSISLAIVSWVIAIGGSISSASTNESFPRFTWWGIVYQFLIICSLMLFYCFDLVDHYRIFITTSIAVAFVYNTNSATNLVYADGPKKAAASAGVILLSIINLIWILYYGGDNASPTNRWIDSFSIKGIRPSPLENSLHRARRRGNRNTTPYQNNVYNDAIRDSGYATQFDGYPQQQPSHTNYVSSTALAGFENTQPNTSEAVNLHLNTLQQRINSASNAKETNDNSNNQTNTNIGNTFDTDFSNGNTETTMGDTLGLYSDIGDDNFIYKAKALYPYDADDDDAYEISFEQNEILQVSDIEGRWWKARRANGETGIIPSNYVQLIDGPEEMHR
partner: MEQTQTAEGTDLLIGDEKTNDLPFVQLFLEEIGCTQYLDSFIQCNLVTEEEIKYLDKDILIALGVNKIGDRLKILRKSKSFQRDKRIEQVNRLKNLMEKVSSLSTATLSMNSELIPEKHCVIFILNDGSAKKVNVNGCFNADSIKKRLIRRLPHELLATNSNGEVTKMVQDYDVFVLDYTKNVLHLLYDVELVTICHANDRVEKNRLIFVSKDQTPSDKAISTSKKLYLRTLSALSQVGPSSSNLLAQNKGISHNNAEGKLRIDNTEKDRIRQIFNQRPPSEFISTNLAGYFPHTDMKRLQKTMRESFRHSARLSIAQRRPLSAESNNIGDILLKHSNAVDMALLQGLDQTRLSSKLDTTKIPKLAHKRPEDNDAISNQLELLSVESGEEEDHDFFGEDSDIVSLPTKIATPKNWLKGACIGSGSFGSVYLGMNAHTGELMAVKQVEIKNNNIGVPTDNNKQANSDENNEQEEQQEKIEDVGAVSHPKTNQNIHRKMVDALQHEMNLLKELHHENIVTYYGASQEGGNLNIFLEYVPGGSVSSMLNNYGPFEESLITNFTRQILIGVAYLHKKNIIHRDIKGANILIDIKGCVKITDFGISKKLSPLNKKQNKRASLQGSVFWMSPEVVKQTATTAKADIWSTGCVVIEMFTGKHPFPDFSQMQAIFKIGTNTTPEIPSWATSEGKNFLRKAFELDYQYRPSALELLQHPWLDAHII
B2: High osmolarity signaling protein SHO1 (Saccharomyces cerevisiae), P40073 (parent)
chain: B1 chain
partner: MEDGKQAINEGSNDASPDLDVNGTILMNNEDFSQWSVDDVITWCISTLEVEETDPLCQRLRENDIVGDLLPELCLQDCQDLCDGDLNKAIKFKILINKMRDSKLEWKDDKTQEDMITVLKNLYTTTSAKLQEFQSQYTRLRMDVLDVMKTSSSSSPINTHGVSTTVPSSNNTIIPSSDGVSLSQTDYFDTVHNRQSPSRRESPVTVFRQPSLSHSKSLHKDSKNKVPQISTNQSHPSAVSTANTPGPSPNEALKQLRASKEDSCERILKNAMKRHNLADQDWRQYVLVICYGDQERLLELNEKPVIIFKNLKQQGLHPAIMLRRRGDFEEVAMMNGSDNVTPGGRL

The first assay covers variants of B1. As to conditions: with ste11_yeast STE11, P23561.
On to G346S, for which the “effect of a mutation on the interaction” value is given as “increasing interaction”. Regarding R342G, the “effect of a mutation on the interaction” value is on record as “increasing interaction”.

Variants of B2 are the subject of another assay. Conditions: with ste50_yeast STE50, P25344.
Consider R342G, for which the “effect of a mutation on the interaction” value is reported as “increasing interaction”.

On to G346S, for which the “effect of a mutation on the interaction” value is on record as “increasing interaction”.
